This is an account of results in patent WO2016002189A1 (dated 2016).

The target in assay [1] is T1, human glucagon (manufactured by Yanaihara Laboratories) (human, UniProt P01275 53-81).
T1 construct: Glucagon is only the 29-residue hormone cut from it
The assay can be described thus: competitive ELISA with biotinylated proglucagon (111-144) as labelled antigen.

Assay [2] concerns the target T2, human GLP-1 (manufactured by Yanaihara Laboratories) (human, UniProt P01275 98-127, limits assumed).
T2 construct: also called glucagon-like peptide-1
T2 peptide (looked up): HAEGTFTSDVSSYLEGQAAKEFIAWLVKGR
Described as above.

For assay [3], the target named is T3, human GLP-2 (manufactured by Yanaihara Laboratories) (human, UniProt P01275 146-178).
T3 construct: also called glucagon-like peptide-2
T3 peptide (looked up): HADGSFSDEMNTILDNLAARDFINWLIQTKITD
Described as above.

Another assay deals with T4, proglucagon (Homo sapiens (Human), UniProt P01275 21-180).
T4 construct: Native protein in culture supernatants or HPLC fractions of human duodenal cancer cell lines, not purified recombinant protein; also called proglucagon protein
The assay can be described thus: epitope assay (chemiluminescent immunoassay).

Assay [4] has as its target T5, peptide consisting of amino acid residues 111 to 144 of proglucagon.
T5 construct: Synthetic peptide; also called proglucagon (111-144); proglucagon 111-144 antigen
T5 peptide: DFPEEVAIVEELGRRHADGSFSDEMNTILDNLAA
Put plainly: ELISA screening of hybridomas against the proglucagon peptides.

T4 sequence (P01275 21-180): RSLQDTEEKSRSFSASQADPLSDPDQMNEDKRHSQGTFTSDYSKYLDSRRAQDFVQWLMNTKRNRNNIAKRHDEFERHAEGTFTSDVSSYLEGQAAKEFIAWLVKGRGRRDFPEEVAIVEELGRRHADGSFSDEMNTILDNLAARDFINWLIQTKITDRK
T1 sequence (P01275 53-81): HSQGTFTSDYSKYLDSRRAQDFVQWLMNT

B1: SCC-MGD-913Ab (antibody, V domains shown)
VH: DVKLVESGGGLVKPGGSLKLSCAASGFTFSSFAMTWVRQTPEKRLEWVATISNGGSYTYYPDSVKGRFTISRDNAKNTLYLQMSSLRSEDTAMYYCTRDGAGKGFPLDYWGQGTTLTVSS
VL: NILLTQSPSSLAVSAGEKVTMSCKSSQSVFYSSNQKNYLAWYQQKPGQSPKLLIYWASTRESGVPDRFTGSGSGTDFTLTISSVQAEDLAIYYCHQYFSSLTFGAGTKLELK
notes: Mouse hybridoma monoclonal from immunisation with the proglucagon 111-144 peptide
In the case of B1, the binding result in assay [1] is recorded as “no binding”; in assay [2], “no binding”; in assay [3], “no binding”; with proglucagon, “binds”; in assay [4], “binds”.
